How the values were obtained:
[1] = molecular target: T1, recombinant human MSLN (purchased from Peprotech) (human, UniProt Q13421 296-598, limits assumed); test: SPR, MSLN immobilized on CM5, scFv as analyte, 1:1 Langmuir
T1 construct: Bought protein; also called recombinant human mesothelin

[2] = molecular target: T2, cynomolgus monkey MSLN on recombinant CHO cell line (cynomolgus monkey); test: cELISA on CHO cells expressing cynomolgus monkey MSLN, HRP-Protein L
T2 construct: whole, on cells; also called plasma-membranous cynomolgus monkey MSLN

[3] = molecular target: T3, recombinant cynomolgus monkey MSLN (purchased from Sino Biological) (cynomolgus monkey); test: SPR, cynomolgus MSLN immobilized on CM5, scFv as analyte, 1:1 Langmuir
T3 construct: Bought protein

[4] = molecular target: biotinylated MSLN (human MSLN in the MSLN/MUC16 competition ELISA) (human, UniProt Q13421 296-598, limits assumed, biotinylated); test: competition ELISA, scFv titrated with biotinylated MSLN; competitor coated MUC16
[5] = molecular target: T4, plasma-membranous human MSLN on cell lines (H226, HPAC, H292, OVCAR-3, MeT-5A) (human, UniProt Q13421 296-598); test: cELISA on H226 cells, HRP-Protein L
T4 construct: whole, on cells; also called human MSLN on H226 cells; mesothelin on target cells

[6] = molecular target: T4, plasma-membranous human MSLN on cell …; test: flow cytometry on OVCAR-3 cells, protein L-PE, 4PL fit
[7] = molecular target: soluble mesothelin (sMSLN); test: cell-based or functional assay
[8] = molecular target: T4, plasma-membranous human MSLN on cell …; test: flow cytometry on H226 cells, protein L-PE, 4PL fit
[9] = molecular target: T4, plasma-membranous human MSLN on cell …; test: cell-based or functional assay
[10] = molecular target: T5, human recombinant CD3ε protein (Sino Biological) (human, UniProt P07766 23-126); test: SPR, CD3ε amine-coupled to CM5, antibody injected
T5 construct: Bought protein; also called recombinant human CD3ε; human CD3ε

[11] = molecular target: T1, recombinant human MSLN (purchased from …); test: SPR (Biacore T200), human MSLN; which of the two formats (MSLN immobilized / antibody captured) not given
[12] = molecular target: T4, plasma-membranous human MSLN on cell …; test: flow cytometry on Met-5A cells, protein L-PE, 4PL fit
[13] = molecular target: human serum albumin (hSA, Sigma-Aldrich A3782) (human, UniProt P02768 25-609); test: SPR, hSA amine-coupled to CM5, antibody injected, pH 5.5, 1:1 Langmuir

Binder | Kd [1] | koff [1] | kon [1] | EC50 [2] | rel. EC50 (EC50, Amatuximab/EC50, scFv) [2] | rel. Maximum binding (OD450-690 nm, scFv/OD450-690 nm, Amatuximab) [2] | Kd [3] | koff [3] | kon [3] | IC50 [4] | Maximum inhibition at highest sample conc. [4] | rel. IC50 (IC50, Amatuximab/IC50, scFv) [4] | EC50 [5] | rel. EC50 (EC50, Amatuximab/EC50, scFv) [5] | rel. Maximum binding (OD450-690 nm, scFv/OD450-690 nm, Amatuximab) [5] | EC50 [6] | max. binding (MFI) [6] | EC50 [8] | Delta 0-50 ng/mL sMSLN (x-fold change in H226 killing potency) [7] | Delta 0-500 ng/mL sMSLN (x-fold change in H226 killing potency) [7] | further results
PRO2567 (MATCH4) (other, Heterodimer) chain 1: AFELTQSPSSLSASVGDRVTITCQASESINSRLAWYQQKPGQPPKLLIYDASDLTSGVPSRFSGSGSGTDFTLTISSLQPEDFATYYCQGYGGSSTTTFGTGTKLTVLGGGGGSGGGGSGGGGSGGGGSEVQLVESGGGLVQPGGSLRLSCAASGFSLSSYAMNWVRQAPGKGLEWIGHINAGDIAYYATWAKGRFTISRDNSKNTVYLQMNSLRAEDTAVYFCARGAGGFSTGPFKLWGQGTLVTVSSGGGGSGGGGSEVQLVESGGGLVQPGGSLRLSCAASGFSLSSYDMSWVRQAPGKGLAWIGASYASGPTYYASWAKGRFTISRDNSKNTVYLQMNSLRAEDTATYFCARGGWTGTSHSNIWGQGTLVTVSSGGGSGGGSGGGSGQSQLVESGGGLVQPGGSLRLSCAVSGFSLSSYAMGWVRQAPGKCLEYIGYISKIGTTYYASWAKGRFTISKDNSKNTVYLQMNSLRAEDTAVYFCARGSSSGGYLDDGFDPWGQGTLVTVSS chain 2: ALQMTQSPSSLSARVGDRVTIKCQASQSISNYLAWYQQKPGKPPKFLIYDASDLASGVPSRFSGSGSGRDFTLTISSLQPEDFATYYCQQVYDSNNVENVFGCGTKVTVLGGGGGSGGGGSGGGGSGGGGSQSQLVESGGGLVQPGGSLRLSCAVSGFSLSSYAMGWVRQAPGKCLEYIGYISKIGTTYYASWAKGRFTISKDNSKNTVYLQMNSLRAEDTAVYFCARGSSSGGYLDDGFDPWGQGTLVTVSSGGGGSGGGGSALQMTQSPSSLSARVGDRVTIKCQASQSISNYLAWYQQKPGKPPKFLIYDASDLASGVPSRFSGSGSGRDFTLTISSLQPEDFATYYCQQVYDSNNVENVFGCGTKVTVLGGGSGGSDIQMTQSPSSLSASVGDRVTITCQSSQSVFSNNYLAWFQQKPGQSPKRLIYSASTLASGVPSRFSGSGSGTDFTLTISSLQPEDFATYYCLGSYACSSADCYVFGTGTKVTVLG | – | – | – | – | – | – | – | – | – | – | – | – | – | – | – | 6.64 nM | 170000 MFI | 0.611 nM | 3.2 fold | 23.8 fold | max. binding (MFI) [8]: 809000 MFI; Fold-diff Window (mean Met-5A EC50 / mean H226 EC50) [9]: 28.5 fold; average mean H226 EC50, cell killing (LDH release) [9]: 0.00346 nM; average mean Met-5A EC50, cell killing (LDH release) [9]: 0.0987 nM; Kd [10]: 4.78 nM; Kd [11]: 1.41 nM; koff [11]: 0.000578 s⁻¹; kon [11]: 411000 M⁻¹ s⁻¹; EC50 [12]: 0.0824 nM; max. binding (MFI) [12]: 11200 MFI; Kd [13]: 8.8 nM; koff [13]: 0.00453 s⁻¹; kon [13]: 515000 M⁻¹ s⁻¹
PRO2566 (MATCH4) (other, Heterodimer) chain 1: AFELTQSPSSLSASVGDRVTITCQASESINSRLAWYQQKPGQPPKLLIYDASDLTSGVPSRFSGSGSGTDFTLTISSLQPEDFATYYCQGYGGSSTTTFGTGTKLTVLGGGGGSGGGGSGGGGSGGGGSEVQLVESGGGLVQPGGSLRLSCAASGFSLSSYAMNWVRQAPGKGLEWIGHINAGDIAYYATWAKGRFTISRDNSKNTVYLQMNSLRAEDTAVYFCARGAGGFSTGPFKLWGQGTLVTVSSGGGGSGGGGSEVQLVESGGGLVQPGGSLRLSCAASGFSLSSYDMSWVRQAPGKGLAWIGASYASGPTYYASWAKGRFTISRDNSKNTVYLQMNSLRAEDTATYFCARGGWTGTSHSNIWGQGTLVTVSSGGGSGGGSGGGSGQSQLVESGGGLVQPGGSLRLSCAVSGFSLSSYAMGWVRQAPGKCLEYIGYISKIGTTYYASWAKGRFTISKDNSKNTVYLQMNSLRAEDTAVYFCARGSSSGGYLDDGFDPWGQGTLVTVSS chain 2: ALQMTQSPSSLSARVGDRVTIKCQASQSISNYLAWYQQKPGKPPKFLIYDASDLASGVPSRFSGSGSGRDFTLTISSLQPEDFATYYCQQVYDSNNVENVFGCGTKVTVLGGGGGSGGGGSGGGGSGGGGSQSQLVESGGGLVQPGGSLRLSCAVSGFSLSSYAMGWVRQAPGKCLEYIGYISKIGTTYYASWAKGRFTISKDNSKNTVYLQMNSLRAEDTAVYFCARGSSSGGYLDDGFDPWGQGTLVTVSSGGGGSGGGGSALQMTQSPSSLSARVGDRVTIKCQASQSISNYLAWYQQKPGKPPKFLIYDASDLASGVPSRFSGSGSGRDFTLTISSLQPEDFATYYCQQVYDSNNVENVFGCGTKVTVLGGGSGGSGGSGGSGDIQMTQSPSSLSASVGDRVTITCQSSQSVFSNNYLAWFQQKPGQSPKRLIYSASTLASGVPSRFSGSGSGTDFTLTISSLQPEDFATYYCLGSYACSSADCYVFGTGTKVTVLG | – | – | – | – | – | – | – | – | – | – | – | – | – | – | – | 5.13 nM | 154000 MFI | 0.564 nM | 3.1 fold | 14.2 fold | max. binding (MFI) [8]: 757000 MFI; Fold-diff Window (mean Met-5A EC50 / mean H226 EC50) [9]: 436 fold; average mean H226 EC50, cell killing (LDH release) [9]: 0.00609 nM; average mean Met-5A EC50, cell killing (LDH release) [9]: 2.66 nM; Kd [10]: 2.97 nM; Kd [11]: 1.52 nM; koff [11]: 0.000608 s⁻¹; kon [11]: 400000 M⁻¹ s⁻¹; EC50 [12]: 0.106 nM; max. binding (MFI) [12]: 12100 MFI; Kd [13]: 6.89 nM; koff [13]: 0.00399 s⁻¹; kon [13]: 579000 M⁻¹ s⁻¹

The next lines start with results.

Kd [1] | koff [1] | kon [1] | EC50 [2] | rel. EC50 (EC50, Amatuximab/EC50, scFv) [2] | rel. Maximum binding (OD450-690 nm, scFv/OD450-690 nm, Amatuximab) [2] | Kd [3] | koff [3] | kon [3] | IC50 [4] | Maximum inhibition at highest sample conc. [4] | rel. IC50 (IC50, Amatuximab/IC50, scFv) [4] | EC50 [5] | rel. EC50 (EC50, Amatuximab/EC50, scFv) [5] | rel. Maximum binding (OD450-690 nm, scFv/OD450-690 nm, Amatuximab) [5] | EC50 [6] | max. binding (MFI) [6] | EC50 [8] | Binder | Delta 0-50 ng/mL sMSLN (x-fold change in H226 killing potency) [7] | Delta 0-500 ng/mL sMSLN (x-fold change in H226 killing potency) [7] | further results
2.91 nM | 0.00227 s⁻¹ | 780000 M⁻¹ s⁻¹ | 12 nM | 0.03 ratio | 0.89 ratio | 30.6 nM | 0.0527 s⁻¹ | 1.72e+06 M⁻¹ s⁻¹ | 0.5 nM | 99.2% | 0.03 ratio | 1.44 nM | 0.16 ratio | 0.57 ratio | – | – | – | anti-MSLN scFv PRO1783 (scFv, also called 54-01-G02-sc01) scFv: DIQMTQSPSSLSASVGDRVTITCQASQNIYSNLAWYQQKPGKAPKLLIYDASDLASGVPSRFSGSGSGTDFTLTISSLQPEDFATYYCQQVRSSSDIDNPFGTGTKVTVLGGGGGSGGGGSGGGGSGGGGSQVQLVESGGGLVQPGGSLRLSCAASGFSLSSYAMGWVRQAPGKGLEWIGYISTINNTYYASWAKGRFTISRDNSKNTVYLQMNSLRAEDTAVYYCAREIRSGWVDYGFSIWGQGTLVTVSS | – | – | –
0.321 nM | 0.000183 s⁻¹ | 568000 M⁻¹ s⁻¹ | 0.76 nM | 0.7 ratio | 0.81 ratio | 1.08 nM | 0.0011 s⁻¹ | 1.02e+06 M⁻¹ s⁻¹ | 0.02 nM | 99% | 0.87 ratio | 0.25 nM | 0.98 ratio | 0.71 ratio | – | – | – | reference anti-MSLN scFv PRO1795 (scFv, also called 54-22-H03-sc01) scFv: DIQMTQSPSSLSASVGDRVTITCQASESIGNYLAWYQQKPGKAPKLLIYSASTLASGVPSRFSGSGSGTDFTLTISSLQPEDFATYYCQSTDYGDSYIFGTGTKVTVLGGGGGSGGGGSGGGGSGGGGSEVQLVESGGGLVQPGGSLRLSCAASGISVSNDYYMCWVRQAPGKGLEWIGCISTYIGNTHYASWAKGRFTISRDNSKNTVYLQMNSLRAEDTAVYYCAKNAGYPGYRYAIDLWGQGTLVTVSS | – | – | –

Reference: patent publication US20230203162A1 (NUMAB THERAPEUTICS, published 2023)
